target: human IGF-IR expressed on recombinant NIH-3T3 cells (human) (UniProt P08069); test: cell-based or functional assay
UniProt P08069, sequence (P08069 31-1367): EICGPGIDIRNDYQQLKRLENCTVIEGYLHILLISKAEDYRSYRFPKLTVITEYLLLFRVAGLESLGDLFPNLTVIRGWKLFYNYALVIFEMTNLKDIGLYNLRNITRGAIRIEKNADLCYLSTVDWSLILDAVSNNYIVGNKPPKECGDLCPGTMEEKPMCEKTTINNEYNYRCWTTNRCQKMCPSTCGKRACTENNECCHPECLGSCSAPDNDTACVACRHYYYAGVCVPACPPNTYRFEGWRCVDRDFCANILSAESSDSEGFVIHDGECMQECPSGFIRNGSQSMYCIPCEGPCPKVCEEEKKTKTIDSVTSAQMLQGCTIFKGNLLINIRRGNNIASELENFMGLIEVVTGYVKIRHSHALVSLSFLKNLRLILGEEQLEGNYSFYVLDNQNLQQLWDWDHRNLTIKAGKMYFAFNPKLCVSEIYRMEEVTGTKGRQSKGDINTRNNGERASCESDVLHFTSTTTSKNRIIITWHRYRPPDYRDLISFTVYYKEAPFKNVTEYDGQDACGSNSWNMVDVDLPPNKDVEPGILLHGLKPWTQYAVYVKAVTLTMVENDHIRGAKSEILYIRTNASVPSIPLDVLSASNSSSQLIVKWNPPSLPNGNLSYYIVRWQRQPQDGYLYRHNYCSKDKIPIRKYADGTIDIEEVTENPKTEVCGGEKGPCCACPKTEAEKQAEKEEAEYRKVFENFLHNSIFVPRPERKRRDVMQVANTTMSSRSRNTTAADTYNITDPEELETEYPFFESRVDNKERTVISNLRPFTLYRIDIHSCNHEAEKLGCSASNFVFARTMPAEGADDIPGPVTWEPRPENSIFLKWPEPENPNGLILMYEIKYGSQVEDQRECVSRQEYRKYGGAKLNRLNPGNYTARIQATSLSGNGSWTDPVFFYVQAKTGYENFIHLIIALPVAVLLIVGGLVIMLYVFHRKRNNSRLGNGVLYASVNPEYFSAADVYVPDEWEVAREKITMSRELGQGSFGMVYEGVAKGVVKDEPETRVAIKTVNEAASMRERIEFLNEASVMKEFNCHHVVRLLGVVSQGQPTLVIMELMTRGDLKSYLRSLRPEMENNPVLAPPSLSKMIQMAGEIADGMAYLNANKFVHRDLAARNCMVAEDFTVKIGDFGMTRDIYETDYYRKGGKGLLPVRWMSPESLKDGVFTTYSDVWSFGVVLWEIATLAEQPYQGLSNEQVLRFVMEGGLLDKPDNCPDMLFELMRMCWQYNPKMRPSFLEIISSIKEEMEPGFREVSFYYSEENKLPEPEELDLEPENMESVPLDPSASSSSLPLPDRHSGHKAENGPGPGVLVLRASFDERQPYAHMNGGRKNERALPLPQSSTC

Activation of IGF-1R (phospho-IGF-IR ELISA), EC50 [nM]	Substance
1.2	rhIGF-I (K27R, K65R) (from UniProt P05019 49-118) (ligand)
1.7	wt-rhIGF - trypsin site - Strep-Tag (ligand)
18.4	wt-rhIGF-I - YRHAK MCa PEG20000 (from UniProt P05019 49-118) (ligand)
